Measurements from publication PMC2148137 (The Journal of Cell Biology, 1998).

Molecular target: T1, GST–Kic1p full-length fusion (S. cerevisiae, UniProt P38692 1-1080)
T1 sequence (looked up): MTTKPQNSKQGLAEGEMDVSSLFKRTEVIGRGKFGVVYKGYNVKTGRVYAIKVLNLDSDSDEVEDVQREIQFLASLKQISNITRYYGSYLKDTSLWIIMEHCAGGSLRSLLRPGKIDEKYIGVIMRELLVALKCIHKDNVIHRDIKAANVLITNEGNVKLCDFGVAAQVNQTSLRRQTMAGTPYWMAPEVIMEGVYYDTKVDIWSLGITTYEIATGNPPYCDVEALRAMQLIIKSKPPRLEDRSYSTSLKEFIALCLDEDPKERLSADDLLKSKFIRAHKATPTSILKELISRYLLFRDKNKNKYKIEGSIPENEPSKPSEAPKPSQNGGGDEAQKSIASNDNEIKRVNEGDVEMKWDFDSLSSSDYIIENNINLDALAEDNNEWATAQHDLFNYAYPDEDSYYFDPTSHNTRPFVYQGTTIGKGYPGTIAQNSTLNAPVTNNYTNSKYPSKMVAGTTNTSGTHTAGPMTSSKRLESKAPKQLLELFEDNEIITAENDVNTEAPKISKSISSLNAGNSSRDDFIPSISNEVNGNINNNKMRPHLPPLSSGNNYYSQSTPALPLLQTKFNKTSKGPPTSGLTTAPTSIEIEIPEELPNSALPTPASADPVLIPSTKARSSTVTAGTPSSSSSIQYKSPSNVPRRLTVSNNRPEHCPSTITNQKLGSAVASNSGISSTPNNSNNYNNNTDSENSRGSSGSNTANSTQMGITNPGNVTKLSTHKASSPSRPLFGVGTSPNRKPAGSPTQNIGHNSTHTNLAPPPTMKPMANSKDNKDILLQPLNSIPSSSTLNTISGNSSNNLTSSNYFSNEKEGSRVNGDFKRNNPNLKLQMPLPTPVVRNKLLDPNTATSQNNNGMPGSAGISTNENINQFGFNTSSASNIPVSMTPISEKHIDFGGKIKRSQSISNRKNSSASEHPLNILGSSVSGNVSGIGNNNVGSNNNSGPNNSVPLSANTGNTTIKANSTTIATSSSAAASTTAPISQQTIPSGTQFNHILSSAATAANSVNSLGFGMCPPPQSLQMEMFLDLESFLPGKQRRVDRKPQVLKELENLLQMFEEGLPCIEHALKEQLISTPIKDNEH
Test: far-Western, overlay or dot blot

B1: radiolabeled Cdc31p purified from bacteria (natural protein, S. cerevisiae, UniProt P06704 1-161, looked up)
chain: MSKNRSSLQSGPLNSELLEEQKQEIYEAFSLFDMNNDGFLDYHELKVAMKALGFELPKREILDLIDEYDSEGRHLMKYDDFYIVMGEKILKRDPLDEIKRAFQLFDDDHTGKISIKNLRRVAKELGETLTDEELRAMIEEFDLDGDGEINENEFIAICTDS
modifications: radiolabeled
- binding result: binds
